In paper PMC10844593:

What was measured:
[1] = molecular target: Flag-tagged human CHREBP fusion protein (human) (UniProt Q9NP71)
[2] = molecular target: Flag-tagged human AMPK-α1 fusion protein (human) (UniProt Q13131)
[3] = molecular target: Flag-tagged human AMPK-α2 fusion protein (human) (UniProt P54646)
Sequence of Flag-tagged human AMPK-α2 fusion protein (human) (P54646 whole entry, the tested form may be a part): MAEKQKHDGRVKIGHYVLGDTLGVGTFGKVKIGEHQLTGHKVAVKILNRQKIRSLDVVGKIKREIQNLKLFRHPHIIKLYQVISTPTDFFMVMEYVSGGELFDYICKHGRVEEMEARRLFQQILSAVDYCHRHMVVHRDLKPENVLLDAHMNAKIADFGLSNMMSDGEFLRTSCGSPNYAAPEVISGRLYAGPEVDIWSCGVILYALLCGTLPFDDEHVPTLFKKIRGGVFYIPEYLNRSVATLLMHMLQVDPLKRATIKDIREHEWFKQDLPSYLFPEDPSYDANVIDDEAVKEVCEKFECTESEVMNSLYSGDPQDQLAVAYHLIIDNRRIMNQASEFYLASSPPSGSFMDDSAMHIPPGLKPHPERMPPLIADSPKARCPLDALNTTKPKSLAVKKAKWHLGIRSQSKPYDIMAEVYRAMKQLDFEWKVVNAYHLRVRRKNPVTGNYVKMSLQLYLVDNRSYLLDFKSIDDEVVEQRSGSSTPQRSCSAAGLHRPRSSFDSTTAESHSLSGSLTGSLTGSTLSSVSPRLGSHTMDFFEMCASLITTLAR

Sequence of active CDK6/Cyclin D3 kinase (Q00534 whole entry): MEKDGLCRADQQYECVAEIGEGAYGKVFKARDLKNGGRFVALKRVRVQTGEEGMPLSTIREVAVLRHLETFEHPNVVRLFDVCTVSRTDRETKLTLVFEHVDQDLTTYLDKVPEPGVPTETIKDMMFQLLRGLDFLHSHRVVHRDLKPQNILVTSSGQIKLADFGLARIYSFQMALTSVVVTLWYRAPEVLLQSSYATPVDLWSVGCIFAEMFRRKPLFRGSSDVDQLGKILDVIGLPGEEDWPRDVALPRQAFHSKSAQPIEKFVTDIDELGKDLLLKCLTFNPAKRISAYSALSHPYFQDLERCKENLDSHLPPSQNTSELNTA
Sequence of active CDK6/Cyclin D3 kinase (P30281 whole entry): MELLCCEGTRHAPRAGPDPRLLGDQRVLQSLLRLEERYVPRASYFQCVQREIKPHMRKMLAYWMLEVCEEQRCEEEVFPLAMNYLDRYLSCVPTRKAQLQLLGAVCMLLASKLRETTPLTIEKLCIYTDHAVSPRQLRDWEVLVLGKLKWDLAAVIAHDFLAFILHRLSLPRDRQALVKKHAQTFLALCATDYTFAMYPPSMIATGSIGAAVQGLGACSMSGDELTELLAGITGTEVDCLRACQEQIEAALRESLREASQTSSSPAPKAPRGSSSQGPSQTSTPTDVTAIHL
Sequence of Flag-tagged human CHREBP fusion protein (human) (Q9NP71 whole entry, the tested form may be a part): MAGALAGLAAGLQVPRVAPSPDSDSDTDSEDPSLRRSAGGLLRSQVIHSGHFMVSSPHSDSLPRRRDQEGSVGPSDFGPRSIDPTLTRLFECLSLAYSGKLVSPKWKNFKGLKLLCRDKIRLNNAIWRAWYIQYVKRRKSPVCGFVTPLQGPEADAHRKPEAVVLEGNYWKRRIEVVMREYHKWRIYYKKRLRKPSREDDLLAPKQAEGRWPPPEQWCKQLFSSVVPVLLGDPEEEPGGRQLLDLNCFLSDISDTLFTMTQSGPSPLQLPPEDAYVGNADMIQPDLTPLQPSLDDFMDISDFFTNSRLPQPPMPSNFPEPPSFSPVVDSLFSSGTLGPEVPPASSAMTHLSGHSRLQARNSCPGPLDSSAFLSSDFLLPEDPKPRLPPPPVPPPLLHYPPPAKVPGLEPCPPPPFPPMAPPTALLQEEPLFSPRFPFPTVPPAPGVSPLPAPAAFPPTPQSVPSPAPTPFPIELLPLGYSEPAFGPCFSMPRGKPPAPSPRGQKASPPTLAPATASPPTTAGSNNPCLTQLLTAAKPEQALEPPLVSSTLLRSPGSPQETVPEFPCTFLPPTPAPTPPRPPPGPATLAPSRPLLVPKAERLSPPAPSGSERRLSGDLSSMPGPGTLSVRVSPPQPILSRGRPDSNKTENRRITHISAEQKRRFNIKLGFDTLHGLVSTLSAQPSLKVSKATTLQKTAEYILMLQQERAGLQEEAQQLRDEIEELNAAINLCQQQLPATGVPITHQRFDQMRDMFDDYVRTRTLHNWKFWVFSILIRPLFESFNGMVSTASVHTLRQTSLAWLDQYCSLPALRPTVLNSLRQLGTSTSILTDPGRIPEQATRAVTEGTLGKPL
Sequence of Flag-tagged human AMPK-α1 fusion protein (human) (Q13131 whole entry, the tested form may be a part): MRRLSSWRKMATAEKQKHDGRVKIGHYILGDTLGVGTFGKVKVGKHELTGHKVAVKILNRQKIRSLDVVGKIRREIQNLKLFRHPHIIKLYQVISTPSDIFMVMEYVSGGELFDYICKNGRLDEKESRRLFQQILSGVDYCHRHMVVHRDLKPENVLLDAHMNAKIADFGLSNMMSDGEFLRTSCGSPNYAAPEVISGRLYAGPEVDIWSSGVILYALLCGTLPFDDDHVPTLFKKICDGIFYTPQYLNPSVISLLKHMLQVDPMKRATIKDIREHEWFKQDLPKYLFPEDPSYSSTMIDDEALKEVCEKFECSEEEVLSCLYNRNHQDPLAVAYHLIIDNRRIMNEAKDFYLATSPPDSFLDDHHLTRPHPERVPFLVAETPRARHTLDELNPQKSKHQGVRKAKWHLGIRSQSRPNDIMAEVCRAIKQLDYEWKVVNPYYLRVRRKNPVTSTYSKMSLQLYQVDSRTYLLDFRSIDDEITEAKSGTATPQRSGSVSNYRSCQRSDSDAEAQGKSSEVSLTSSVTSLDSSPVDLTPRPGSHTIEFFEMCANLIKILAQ

fold increase in total spectrum counts (TSC) of phosphorylated peptides of the substrate after in vitro kinase reaction with CDK6/D3 (mass spectrometry) [1]: 6.43 fold
fold increase in total spectrum counts (TSC) of phosphorylated peptides of the substrate after in vitro kinase reaction with CDK6/D3 (mass spectrometry) [2]: 14.7 fold
fold increase in total spectrum counts (TSC) of phosphorylated peptides of the substrate after in vitro kinase reaction with CDK6/D3 (mass spectrometry) [3]: 46.8 fold
Substance: active CDK6/Cyclin D3 kinase (from UniProt Q00534 1-326; P30281 1-292) (complex)
